Measurements: PMC7594496, “Combinatorial multivalent interactions drive cooperative assembly of the COPII coat” (The Journal of Cell Biology, 2020)

Biological target: T1, Sec23–Sec24 complex (WT) (yeast (S. cerevisiae), UniProt P15303 1-768; P40482 1-926)
T1 construct: Sec23, COPII inner coat subunit, yeast; Co-expressed and co-purified complex; also called Sec23 and His-Sec24; inner coat; source: Sf9 cells (pFastbac), purified (HisTrap HP, HiTrap Q HP)
Experiment: liposome flotation (coat recruitment to synthetic liposomes); purified Sar1 (15 µg/ml), Sec23–Sec24 (20 µg/ml), Sec13–Sec31 (30 µg/ml), 0.27 mM major/minor liposomes (0.4 µm), 0.1 mM GMP-PNP, HKM buffer pH 7.0, 30 min at 25°C; liposomes floated through sucrose; bound proteins by SDS-PAGE and SYPRO red
Conditions: both partners purified

T1 sequence (P15303 whole entry, chain 1 of 2): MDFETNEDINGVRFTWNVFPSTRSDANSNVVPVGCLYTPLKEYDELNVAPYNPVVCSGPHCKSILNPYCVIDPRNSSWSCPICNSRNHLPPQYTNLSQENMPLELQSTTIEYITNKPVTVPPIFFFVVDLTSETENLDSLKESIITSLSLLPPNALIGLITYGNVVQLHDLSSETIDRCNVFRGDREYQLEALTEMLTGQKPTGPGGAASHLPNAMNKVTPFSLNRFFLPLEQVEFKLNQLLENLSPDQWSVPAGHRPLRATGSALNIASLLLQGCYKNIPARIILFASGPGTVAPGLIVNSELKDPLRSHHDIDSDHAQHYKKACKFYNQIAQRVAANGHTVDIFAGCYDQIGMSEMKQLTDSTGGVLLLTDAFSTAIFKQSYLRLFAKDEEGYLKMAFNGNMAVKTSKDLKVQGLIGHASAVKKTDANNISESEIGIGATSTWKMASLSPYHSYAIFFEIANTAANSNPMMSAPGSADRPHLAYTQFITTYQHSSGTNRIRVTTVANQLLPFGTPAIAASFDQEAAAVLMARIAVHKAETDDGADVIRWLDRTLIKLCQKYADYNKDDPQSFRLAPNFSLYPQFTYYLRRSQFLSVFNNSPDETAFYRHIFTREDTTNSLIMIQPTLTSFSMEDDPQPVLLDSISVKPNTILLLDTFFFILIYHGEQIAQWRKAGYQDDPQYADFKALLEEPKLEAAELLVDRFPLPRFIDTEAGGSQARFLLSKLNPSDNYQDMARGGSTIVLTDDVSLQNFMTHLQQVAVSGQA
T1 sequence (P40482 whole entry, chain 2 of 2): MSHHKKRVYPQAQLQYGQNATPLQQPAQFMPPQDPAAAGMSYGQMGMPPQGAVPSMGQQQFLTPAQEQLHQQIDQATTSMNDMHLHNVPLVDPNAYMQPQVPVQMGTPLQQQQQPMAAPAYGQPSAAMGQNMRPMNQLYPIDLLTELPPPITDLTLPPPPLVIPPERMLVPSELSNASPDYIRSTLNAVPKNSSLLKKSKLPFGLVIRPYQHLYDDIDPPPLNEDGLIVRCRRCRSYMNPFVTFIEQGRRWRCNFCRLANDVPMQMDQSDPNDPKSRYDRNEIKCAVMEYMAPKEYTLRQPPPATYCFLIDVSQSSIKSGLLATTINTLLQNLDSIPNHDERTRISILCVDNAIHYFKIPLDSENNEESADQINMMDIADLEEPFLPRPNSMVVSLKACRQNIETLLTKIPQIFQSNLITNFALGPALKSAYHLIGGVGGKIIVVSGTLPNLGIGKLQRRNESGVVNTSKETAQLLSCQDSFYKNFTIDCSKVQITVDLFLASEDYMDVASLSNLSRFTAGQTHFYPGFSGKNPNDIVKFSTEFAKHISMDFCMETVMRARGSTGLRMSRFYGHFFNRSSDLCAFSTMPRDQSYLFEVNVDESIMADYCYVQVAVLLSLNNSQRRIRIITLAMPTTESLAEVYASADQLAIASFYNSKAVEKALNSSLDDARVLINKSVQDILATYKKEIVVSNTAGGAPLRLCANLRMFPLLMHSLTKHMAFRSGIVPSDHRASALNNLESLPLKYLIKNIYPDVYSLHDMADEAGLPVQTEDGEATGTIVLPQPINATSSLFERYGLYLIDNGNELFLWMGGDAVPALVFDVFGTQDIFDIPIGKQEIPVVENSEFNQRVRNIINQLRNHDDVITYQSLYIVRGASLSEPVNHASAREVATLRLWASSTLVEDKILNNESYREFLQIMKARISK

binding result: binds
B1: Sec13–Sec31 complex (WT) (complex, yeast (S. cerevisiae) | S. cerevisiae)
chain 1: MVVIANAHNELIHDAVLDYYGKRLATCSSDKTIKIFEVEGETHKLIDTLTGHEGPVWRVDWAHPKFGTILASCSYDGKVLIWKEENGRWSQIAVHAVHSASVNSVQWAPHEYGPLLLVASSDGKVSVVEFKENGTTSPIIIDAHAIGVNSASWAPATIEEDGEHNGTKESRKFVTGGADNLVKIWKYNSDAQTYVLESTLEGHSDWVRDVAWSPTVLLRSYLASVSQDRTCIIWTQDNEQGPWKKTLLKEEKFPDVLWRASWSLSGNVLALSGGDNKVTLWKENLEGKWEPAGEVHQ
chain 2: MVKLAEFSRTATFAWSHDKIPLLVSGTVSGTVDANFSTDSSLELWSLLAADSEKPIASLQVDSKFNDLDWSHNNKIIAGALDNGSLELYSTNEANNAINSMARFSNHSSSVKTVKFNAKQDNVLASGGNNGEIFIWDMNKCTESPSNYTPLTPGQSMSSVDEVISLAWNQSLAHVFASAGSSNFASIWDLKAKKEVIHLSYTSPNSGIKQQLSVVEWHPKNSTRVATATGSDNDPSILIWDLRNANTPLQTLNQGHQKGILSLDWCHQDEHLLLSSGRDNTVLLWNPESAEQLSQFPARGNWCFKTKFAPEAPDLFACASFDNKIEVQTLQNLTNTLDEQETETKQQESETDFWNNVSREESKEKPTVFHLQAPTWYGEPSPAAHWAFGGKLVQITPDGKGVSITNPKISGLESNTTLSEALKTKDFKPLINQRLVKVIDDVNEEDWNLLEKLSMDGTEEFLKEALAFDNDESDAQDDANNEKEDDGEEFFQQIETNFQPEGDFSLSGNIEQTISKNLVSGNIKSAVKNSLENDLLMEAMVIALDSNNERLKESVKNAYFAKYGSKSSLSRILYSISKREVDDLVENLDVSQWKFISKAIQNLYPNDIAQRNEMLIKLGDRLKENGHRQDSLTLYLAAGSLDKVASIWLSEFPDLEDKLKKDNKTIYEAHSECLTEFIERFTVFSNFINGSSTINNEQLIAKFLEFINLTTSTGNFELATEFLNSLPSDNEEVKTEKARVLIASGKSLPAQNPATATTSKAKYTNAKTNKNVPVLPTPGMPSTTSIPSMQAPFYGMTPGASANALPPKPYVPATTTSAPVHTEGKYAPPSQPSMASPFVNKTNSSTRLNSFAPPPNPYATATVPATNVSTTSIPQNTFAPIQPGMPIMGDYNAQSSSIPSQPPINAVSGQTPHLNRKANDGWNDLPLKVKEKPSRAKAVSVAPPNILSTPTPLNGIPANAASTMPPPPLSRAPSSVSMVSPPPLHKNSRVPSLVATSESPRASISNPYAPPQSSQQFPIGTISTANQTSNTAQVASSNPYAPPPQQRVATPLSGGVPPAPLPKASNPYAPTATTQPNGSSYPPTGPYTNNHTMTSPPPVFNKPPTGPPPISMKKRSNKLASIEQNPSQGATYPPTLSSSASPLQPSQPPTLASQVNTSAENVSHEIPADQQPIVDFLKEELARVTPLTPKEYSKQLKDCDKRLKILFYHLEKQDLLTQPTIDCLHDLVALMKEKKYKEAMVIHANIATNHAQEGGNWLTGVKRLIGIAEATLN
notes: Sec13, COPII outer coat subunit, yeast; Sec31, COPII outer coat subunit, S. cerevisiae; disordered proline-rich region defined as residues 764-1,174; also called outer coat; WT Sec31; source: Sf9 cells (pFastbac), purified (HisTrap HP, TEV cleavage of the 6xHis tag on Sec31, HiTrap Q HP); not shown: His6, N-terminal, cleaved
